Assay results taken from publication PMC11696079 (Nature Communications, 2025).
Where “and” joins values, the source holds several entries; their conditions need not be identical. Equal entries are not always repeated.

Target: recombinant wild-type PKM2 (WT) (UniProt P14618 1-531)
Assay: SPR

Sequence of recombinant wild-type PKM2 (WT) (P14618 whole entry): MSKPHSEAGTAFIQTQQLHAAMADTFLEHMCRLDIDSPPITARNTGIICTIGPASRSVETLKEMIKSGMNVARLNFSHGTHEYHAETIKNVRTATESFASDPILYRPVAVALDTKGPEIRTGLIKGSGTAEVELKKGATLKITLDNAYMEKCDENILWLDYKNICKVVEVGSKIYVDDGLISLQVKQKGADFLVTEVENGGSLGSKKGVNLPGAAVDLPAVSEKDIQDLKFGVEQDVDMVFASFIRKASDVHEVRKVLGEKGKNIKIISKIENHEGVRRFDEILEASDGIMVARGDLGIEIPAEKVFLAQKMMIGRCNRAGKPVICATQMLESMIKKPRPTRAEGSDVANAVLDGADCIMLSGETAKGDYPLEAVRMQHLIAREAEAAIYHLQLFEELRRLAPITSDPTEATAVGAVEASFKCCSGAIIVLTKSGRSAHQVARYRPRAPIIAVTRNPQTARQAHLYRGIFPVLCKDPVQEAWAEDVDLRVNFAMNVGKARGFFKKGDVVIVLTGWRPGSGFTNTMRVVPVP

Kd: 382 nM and 322 nM
B1: recombinant wild-type ALDOA (WT) (enzyme)
chain: PYQYPALTPEQKKELSDIAHRIVAPGKGILAADESTGSIAKRLQSIGTENTEENRRFYRQLLLTADDRVNPCIGGVILFHETLYQKADDGRPFPQVIKSKGGVVGIKVDKGVVPLAGTNGETTTQGLDGLSERCAQYKKDGADFAKWRCVLKIGEHTPSALAIMENANVLARYASICQQNGIVPIVEPEILPDGDHDLKRCQYVTEKVLAAVYKALSDHHIYLEGTLLKPNMVTPGHACTQKFSHEEIAMATVTALRRTVPPAVTGITFLSGGQSEEEASINLNAINKCPLLKPWALTFSYGRALQASALKAWGGKKENLKAAQEEYVKRALANSLACQGKYTPSGQAGAAASESLFVSNHAY
